B1: BCL2L13 (parent)
chain: MASSSTVPLGFHYETKYVVLSYLG
B2: TRIB1 (parent)
chain: EIGTSDQIVPEYQEDSDISSFFC

Variants of: B1
Assay: protein stability index of a GFP-peptide fusion (GPS, HEK-293T) (PSI 1-6); higher = more stable
Conditions: c terminus: a fixed tail appended
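Further: lentivirally expressed fusions sorted by FACS into six bins by GFP to DsRed ratio, PSI derived from sequencing read proportions per bin multiplied by bin number.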

Row | Variant | protein stability index
1 | MASSSTVPLGFHYETKYVVLSMLG [Y22M] | 2.7
2 | MASSSTVPLGFHYETKYVVLSFLG [Y22F] | 2.49
3 | MASSSTVPLGFHYETKYVVLSQLG [Y22Q] | 3.03
4 | MASSSTVPLGFHYETKYVVLSKLG [Y22K] | 2.37
5 | MASSSTVPLGFHYETKYVVLSDLG [Y22D] | 2.4
6 | MASSSTVPLGFHYETKYVVLSILG [Y22I] | 2.02
7 | MASSSTVPLGFHYETKYVVLSGLG [Y22G] | 2.51
8 | MASSSTVPLGFHYETKYVVLSNLG [Y22N] | 1.63
9 | MASSSTVPLGFHYETKYVVLSHLG [Y22H] | 3
10 | MASSSTVPLGFHYETKYVVLSRLG [Y22R] | 1.69
11 | MASSSTVPLGFHYETKYVVLSSLG [Y22S] | 3.81
12 | MASSSTVPLGFHYETKYVVLSWLG [Y22W] | 2.89
13 | MASSSTVPLGFHYETKYVVLSVLG [Y22V] | 1.89
14 | MASSSTVPLGFHYETKYVVLSPLG [Y22P] | 1.47
15 | MASSSTVPLGFHYETKYVVLSCLG [Y22C] | 2.8

Variants of: B2
Assay: as above
Conditions: c terminus: native

Row | Variant | protein stability index
16 | EIGVSDQIVPEYQEDSDISSFFC [T4V] | 2.67
17 | EIGHSDQIVPEYQEDSDISSFFC [T4H] | 2.55
18 | EIGDSDQIVPEYQEDSDISSFFC [T4D] | 2.32
19 | EIGYSDQIVPEYQEDSDISSFFC [T4Y] | 3.1
20 | EIGGSDQIVPEYQEDSDISSFFC [T4G] | 3.12
21 | EIGFSDQIVPEYQEDSDISSFFC [T4F] | 3.18
22 | EIGKSDQIVPEYQEDSDISSFFC [T4K] | 3.25
23 | EIGISDQIVPEYQEDSDISSFFC [T4I] | 2.62
24 | EIGWSDQIVPEYQEDSDISSFFC [T4W] | 2.73
25 | EIGRSDQIVPEYQEDSDISSFFC [T4R] | 2.88
26 | EIGLSDQIVPEYQEDSDISSFFC [T4L] | 2.77
27 | EIGSSDQIVPEYQEDSDISSFFC [T4S] | 2.87
28 | EIGMSDQIVPEYQEDSDISSFFC [T4M] | 2.67
29 | EIGESDQIVPEYQEDSDISSFFC [T4E] | 2.86
30 | EIGQSDQIVPEYQEDSDISSFFC [T4Q] | 2.25
31 | EIGASDQIVPEYQEDSDISSFFC [T4A] | 3.23
32 | EIGNSDQIVPEYQEDSDISSFFC [T4N] | 2.39
33 | EIGPSDQIVPEYQEDSDISSFFC [T4P] | 3.22
34 | EIGCSDQIVPEYQEDSDISSFFC [T4C] | 2.33
35 | EIATSDQIVPEYQEDSDISSFFC [G3A] | 2.64
36 | EIMTSDQIVPEYQEDSDISSFFC [G3M] | 2.83
37 | EIPTSDQIVPEYQEDSDISSFFC [G3P] | 2.97
38 | EIQTSDQIVPEYQEDSDISSFFC [G3Q] | 2.7
39 | EIYTSDQIVPEYQEDSDISSFFC [G3Y] | 2.38
40 | EIETSDQIVPEYQEDSDISSFFC [G3E] | 2.97
41 | EISTSDQIVPEYQEDSDISSFFC [G3S] | 2.57
42 | EIWTSDQIVPEYQEDSDISSFFC [G3W] | 2.18

Row | Variant | protein stability index
43 | EIDTSDQIVPEYQEDSDISSFFC [G3D] | 2.55
44 | EITTSDQIVPEYQEDSDISSFFC [G3T] | 3.01
45 | EIHTSDQIVPEYQEDSDISSFFC [G3H] | 2.63
46 | EICTSDQIVPEYQEDSDISSFFC [G3C] | 2.38
47 | EILTSDQIVPEYQEDSDISSFFC [G3L] | 2.29
48 | EINTSDQIVPEYQEDSDISSFFC [G3N] | 2.81
49 | EIKTSDQIVPEYQEDSDISSFFC [G3K] | 2.65
50 | EIITSDQIVPEYQEDSDISSFFC [G3I] | 2.42
51 | EIVTSDQIVPEYQEDSDISSFFC [G3V] | 2.78
52 | EIFTSDQIVPEYQEDSDISSFFC [G3F] | 2.32
53 | EIRTSDQIVPEYQEDSDISSFFC [G3R] | 2.31
54 | EIGTEDQIVPEYQEDSDISSFFC [S5E] | 2.77
55 | EIGTCDQIVPEYQEDSDISSFFC [S5C] | 2.72
56 | EIGTADQIVPEYQEDSDISSFFC [S5A] | 2.81
57 | EIGTDDQIVPEYQEDSDISSFFC [S5D] | 2.97
58 | LIGTSDQIVPEYQEDSDISSFFC [E1L] | 2.21
59 | VIGTSDQIVPEYQEDSDISSFFC [E1V] | 2.74
60 | HIGTSDQIVPEYQEDSDISSFFC [E1H] | 1.97
61 | AIGTSDQIVPEYQEDSDISSFFC [E1A] | 2.7
62 | QIGTSDQIVPEYQEDSDISSFFC [E1Q] | 2.57
63 | GIGTSDQIVPEYQEDSDISSFFC [E1G] | 2.58
64 | YIGTSDQIVPEYQEDSDISSFFC [E1Y] | 2.11
65 | KIGTSDQIVPEYQEDSDISSFFC [E1K] | 1.98
66 | TIGTSDQIVPEYQEDSDISSFFC [E1T] | 2.97
67 | MIGTSDQIVPEYQEDSDISSFFC [E1M] | 2.41
68 | CIGTSDQIVPEYQEDSDISSFFC [E1C] | 2.38
69 | NIGTSDQIVPEYQEDSDISSFFC [E1N] | 2.32

Row | Variant | protein stability index
70 | PIGTSDQIVPEYQEDSDISSFFC [E1P] | 3.11
71 | WIGTSDQIVPEYQEDSDISSFFC [E1W] | 2.46
72 | SIGTSDQIVPEYQEDSDISSFFC [E1S] | 2.42
73 | IIGTSDQIVPEYQEDSDISSFFC [E1I] | 1.9
74 | RIGTSDQIVPEYQEDSDISSFFC [E1R] | 2.77
75 | DIGTSDQIVPEYQEDSDISSFFC [E1D] | 2.57
76 | FIGTSDQIVPEYQEDSDISSFFC [E1F] | 2.15
77 | EHGTSDQIVPEYQEDSDISSFFC [I2H] | 3.45
78 | ETGTSDQIVPEYQEDSDISSFFC [I2T] | 2.75
79 | EGGTSDQIVPEYQEDSDISSFFC [I2G] | 3.58
80 | EKGTSDQIVPEYQEDSDISSFFC [I2K] | 2.9
81 | EDGTSDQIVPEYQEDSDISSFFC [I2D] | 4.01
82 | ERGTSDQIVPEYQEDSDISSFFC [I2R] | 2.59
83 | EQGTSDQIVPEYQEDSDISSFFC [I2Q] | 2.73
84 | EEGTSDQIVPEYQEDSDISSFFC [I2E] | 3.64
85 | ESGTSDQIVPEYQEDSDISSFFC [I2S] | 2.94
86 | EFGTSDQIVPEYQEDSDISSFFC [I2F] | 2.59
87 | ELGTSDQIVPEYQEDSDISSFFC [I2L] | 3.06
88 | EPGTSDQIVPEYQEDSDISSFFC [I2P] | 4.12
89 | EAGTSDQIVPEYQEDSDISSFFC [I2A] | 2.86
90 | EYGTSDQIVPEYQEDSDISSFFC [I2Y] | 2.81
91 | EVGTSDQIVPEYQEDSDISSFFC [I2V] | 3.35
92 | EWGTSDQIVPEYQEDSDISSFFC [I2W] | 2.06
93 | ENGTSDQIVPEYQEDSDISSFFC [I2N] | 2.74
94 | ECGTSDQIVPEYQEDSDISSFFC [I2C] | 2.57
95 | EMGTSDQIVPEYQEDSDISSFFC [I2M] | 3.15
